Experimental data taken from publication PMC12057046, “Elucidation of short linear motif-based interactions of the MIT and rhodanese domains of the ubiquitin-specific protease 8” (Biology Direct, 2025).

B1: TET3 peptide 1705-1720 (methylcytosine dioxygenase TET3), 16-mer library wild type / USP8 rhodanese domain (ubiquitin carboxyl-terminal hydrolase 8, residues 174-317) (parent)
chain 1: GLALWEAKMKQLAERA
chain 2: KCETKEKGAITAKELYTMMTDKNISLIIMDARRMQDYQDSCILHSLSVPEEAISPGVTASWIEAHLPDDSKDTWKKRGNVEYVVLLDWFSSAKDLQIGTTLRSLKDALFKWESKTVLRNEPLVLEGGYENWLLCYPQYTTNAKV

Variants of: B1
Experiment: peptide-phage display deep mutational scan (M13, 16-mer library, displayed with a C-terminal GGGSG linker encoded by the 3' flank) selected against the GST-tagged USP8 rhodanese domain, four rounds; NGS counts summed over selection …
Settings: with USP8 rhodanese domain (ubiquitin carboxyl-terminal hydrolase 8, residues 174-317), 10 µg GST-bait on MaxiSorp, pre-cleared on GST, 2 h at 4 °C, five washes with 0.05% Tween 20 in PBS, not graded, scale: average over two replicas of the peptide's fractional NGS count

Variant | screen value
chain 1 GLALWEAKWKQLAERA [chain 1 M9W] | 0.00223
chain 1 GLALWEAKYKQLAERA [chain 1 M9Y] | 3.9e-05
chain 1 GLALWEAKRKQLAERA [chain 1 M9R] | 0.000108
chain 1 GLALWEAKNKQLAERA [chain 1 M9N] | 1.73e-05
chain 1 GLALWEAKIKQLAERA [chain 1 M9I] | 4.74e-05
chain 1 GLALWEAKSKQLAERA [chain 1 M9S] | 0.0119
chain 1 GLALWEAKFKQLAERA [chain 1 M9F] | 1.3e-05
chain 1 GLALWEAKQKQLAERA [chain 1 M9Q] | 3.16e-05
chain 1 GLALWEAKTKQLAERA [chain 1 M9T] | 0.000181
chain 1 GLALWEAKAKQLAERA [chain 1 M9A] | 0.00064
chain 1 GLALWEAKPKQLAERA [chain 1 M9P] | 2.45e-05
chain 1 GLALWEAKLKQLAERA [chain 1 M9L] | 4.33e-06
chain 1 GLALWEAKVKQLAERA [chain 1 M9V] | 1.3e-05
chain 1 GLALWEAKHKQLAERA [chain 1 M9H] | 3.75e-05
chain 1 GLALWEAKMKQLAELA [chain 1 R15L] | 0.000427
chain 1 GLALWEAKMKQLAEDA [chain 1 R15D] | 7.21e-05
chain 1 GLALWEAKMKQLAENA [chain 1 R15N] | 8.62e-05
chain 1 GLALWEAKMKQLAEPA [chain 1 R15P] | 0.0867
chain 1 GLALWEAKMKQLAEGA [chain 1 R15G] | 0.000816
chain 1 GLALWEAKMKQLAEHA [chain 1 R15H] | 0.000187
chain 1 GLALWEAKMKQLAEKA [chain 1 R15K] | 0.000386
chain 1 GLALWEAKMKQLAEAA [chain 1 R15A] | 4.33e-06
chain 1 GLALWEAKMKQLAEFA [chain 1 R15F] | 2.3e-05
chain 1 GLALWEAKMKQLAEEA [chain 1 R15E] | 0.00031

Variant | screen value
chain 1 GLALWEAKMKQLAEMA [chain 1 R15M] | 0.000392
chain 1 GLALWEAKMKHLAERA [chain 1 Q11H] | 0.000267
chain 1 GLALWEAKMKGLAERA [chain 1 Q11G] | 0.000837
chain 1 GLALWEAKMKYLAERA [chain 1 Q11Y] | 8.66e-05
chain 1 GLALWEAKMKALAERA [chain 1 Q11A] | 3.6e-05
chain 1 GLALWEAKMKTLAERA [chain 1 Q11T] | 0.000142
chain 1 GLALWEAKMKWLAERA [chain 1 Q11W] | 2.17e-05
chain 1 GLALWEAKMKDLAERA [chain 1 Q11D] | 0.00724
chain 1 GLALWEAKMKNLAERA [chain 1 Q11N] | 0.00283
chain 1 GLALWEAKMKILAERA [chain 1 Q11I] | 8.66e-06
chain 1 GLALWEAKMKVLAERA [chain 1 Q11V] | 8.66e-06
chain 1 GLALWEAKMKLLAERA [chain 1 Q11L] | 0.0108
chain 1 GLALWEAKMKKLAERA [chain 1 Q11K] | 1.15e-05
chain 1 GLALWEAKMKSLAERA [chain 1 Q11S] | 0.00344
chain 1 GLALWEAKMKMLAERA [chain 1 Q11M] | 0.000201
chain 1 GLALWEAKMKRLAERA [chain 1 Q11R] | 0.000162
chain 1 GLALWEAKMKFLAERA [chain 1 Q11F] | 4.33e-06
chain 1 GLALWEAKMKQLAERH [chain 1 A16H] | 2.3e-05
chain 1 GLALWEAKMKQLAERR [chain 1 A16R] | 8.66e-06
chain 1 GLALWEAKMKQLAERG [chain 1 A16G] | 6.5e-05
chain 1 GLALWEAKMKQLAERL [chain 1 A16L] | 6.61e-05
chain 1 GLALWEAKMKQLAERI [chain 1 A16I] | 0.00523
chain 1 GLALWEAKMKQLAERY [chain 1 A16Y] | 1.58e-05
chain 1 GLALWEAKMKQLAERE [chain 1 A16E] | 0.00115

Variant | screen value
chain 1 GLALWEAKMKQLAERD [chain 1 A16D] | 0.027
chain 1 GLALWEAKMKQLAERF [chain 1 A16F] | 4.33e-06
chain 1 GLALWEAKMKQLAERN [chain 1 A16N] | 0.00504
chain 1 GLALWEAKMKQLAERQ [chain 1 A16Q] | 0.00138
chain 1 GLALWEAKMKQLAERT [chain 1 A16T] | 0.00395
chain 1 GLALWEAKMKQLAERM [chain 1 A16M] | 0.000143
chain 1 GLALWEAKMKQLAERV [chain 1 A16V] | 0.00901
chain 1 GLALWEAKMKQLAERP [chain 1 A16P] | 0.0179
chain 1 GLALWEAKMKQLAERS [chain 1 A16S] | 0.00296
chain 1 GLALWEAKMKQLAVRA [chain 1 E14V] | 0.000238
chain 1 GLALWEAKMKQLAIRA [chain 1 E14I] | 4.33e-06
chain 1 GLALWEAKMKQLAFRA [chain 1 E14F] | 0.000199
chain 1 GLALWEAKMKQLATRA [chain 1 E14T] | 8.66e-06
chain 1 GLALWEAKMKQLAGRA [chain 1 E14G] | 0.000341
chain 1 GLALWEAKMKQLAQRA [chain 1 E14Q] | 4.03e-05
chain 1 GLALWEAKMKQLASRA [chain 1 E14S] | 7.32e-05
chain 1 GLALWEAKMKQLAYRA [chain 1 E14Y] | 2.3e-05
chain 1 GLALWEAKMKQLAMRA [chain 1 E14M] | 0.000615
chain 1 GLALWEAKMKQLALRA [chain 1 E14L] | 0.000367
chain 1 GLALWEAKMKQLAARA [chain 1 E14A] | 4.18e-05
chain 1 GLALWEAKMKQLADRA [chain 1 E14D] | 2.73e-05
chain 1 GLALWEAKMKQLAWRA [chain 1 E14W] | 4.33e-06
chain 1 GLALWEAKMKQLANRA [chain 1 E14N] | 6.5e-05
chain 1 QLALWEAKMKQLAERA [chain 1 G1Q] | 8.66e-06

Variant | screen value
chain 1 RLALWEAKMKQLAERA [chain 1 G1R] | 4.33e-06
chain 1 NLALWEAKMKQLAERA [chain 1 G1N] | 4.46e-05
chain 1 KLALWEAKMKQLAERA [chain 1 G1K] | 2.01e-05
chain 1 ELALWEAKMKQLAERA [chain 1 G1E] | 6.35e-05
chain 1 GLALWEAPMKQLAERA [chain 1 K8P] | 1.73e-05
chain 1 GLALWEAEMKQLAERA [chain 1 K8E] | 4.33e-06
chain 1 GLALWEANMKQLAERA [chain 1 K8N] | 2.3e-05
chain 1 GLALWEAQMKQLAERA [chain 1 K8Q] | 4.33e-06
chain 1 GKALWEAKMKQLAERA [chain 1 L2K] | 1.3e-05
chain 1 GWALWEAKMKQLAERA [chain 1 L2W] | 0.000401
chain 1 GYALWEAKMKQLAERA [chain 1 L2Y] | 1.73e-05
chain 1 GMALWEAKMKQLAERA [chain 1 L2M] | 0.000603
chain 1 GVALWEAKMKQLAERA [chain 1 L2V] | 0.00764
chain 1 GHALWEAKMKQLAERA [chain 1 L2H] | 2.73e-05
chain 1 GPALWEAKMKQLAERA [chain 1 L2P] | 4.33e-06
chain 1 GIALWEAKMKQLAERA [chain 1 L2I] | 0.00377
chain 1 GSALWEAKMKQLAERA [chain 1 L2S] | 1.15e-05
chain 1 GRALWEAKMKQLAERA [chain 1 L2R] | 4.33e-06
chain 1 GFALWEAKMKQLAERA [chain 1 L2F] | 4.18e-05
chain 1 GTALWEAKMKQLAERA [chain 1 L2T] | 4.33e-06
chain 1 GAALWEAKMKQLAERA [chain 1 L2A] | 4.33e-06
chain 1 GLALWEAKMYQLAERA [chain 1 K10Y] | 0.000154
